B1: TPR t1 (parent)
chain: GACCAAUCUGCCCUCAGAGCUCGAGAACAUCUUCGGAUGCAGAGGAGGCAGGCUUCGGUGGCGCGAUAGCGCCAACGUCCUCAACCUCCAAUGCAUCCCACCACAUGAUGAUGCCUGAAGAGCCUUGGUUUUUUG

Variants of: B1
Assay: polymerase ribozyme fitness, log enrichment relative to wild type (log ratio); higher = more active; in vitro selection for triplet polymerase activity
Method in brief: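 Mutant libraries of each subunit of a heterodimeric triplet polymerase ribozyme were built by PCR and transcribed. Each library went through one round of in vitro selection in triplicate: annealing with biotinylated primer, partner subunit and triplets, frozen incubation at −7 °C, gel excision of extended constructs, streptavidin-bead capture and RT-PCR. Input and output libraries were Illumina-sequenced; only genotypes with ≥10 input reads and ≥1 read per output were kept. Fitness is log2(genotype enrichment/wild-type enrichment), using inverse-variance-weighted replicate averages.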

Variant	polymerase ribozyme fitness (log ratio)
C13A U130A	-2.56
G36U C70G C101A G120A	-3.68
A41G C104U	0.737
A6U G61C	-1.18
U21G G42U U112A	0.673
G69C U106A C124A G128A	-1.94
A84G C98U A100U	-4.01
A5C C53A G71U C98U U112A G120U	-6.47
G47U C115U	-2.5
G57U G71A	-0.471
G19U G47C C97U C114G	-2.97
C11A A100C	-2.81
C12A A24C C97U	-7.95
C12G A41U G44C C64U C82G G113U	-5.32
C13G G63U	-2.53
A37G G57C G58U G120U	-0.432
C53U C64U U106A	-1.12
C28G G60U	-2.56
C34A U78C C88U	-1.84
G71A C104U	-0.49
A6U C8G G44U C49A G77U G120C U130G	-2.14

Variant	polymerase ribozyme fitness (log ratio)
U14A G71C	-3.09
A5U A29U C94U	-2.08
A6C G39U	-1.84
G48A G63A U116C G122A	-5.7
C13U G69U C94U	0.248
C12A U14G G17A C20A C94A	-3.13
G48U G60U G61A A83G U129G	-3.05
C98U G117A	-2.99
A5C C73A	-0.312
G36C U112A	-1.13
C53U G61C	0.349
G39U C115U U131A	-2.02
A5G A95U A121C G128A U130C	-0.519
A29U C53G U81A A121U U132A	-1.75
U9G C56U G65C A105U U109C	-6.39
C15A C49A C86A A95U G110A C123A	-5.76
U7G C8A	0.287
C82A C86G	-1.3
C13U G45A G71C	-0.496
G120A U129G	-0.391
G60U A121U C124A U131G	-3.49

Variant	polymerase ribozyme fitness (log ratio)
G19U U21A G47C A90C G113C	-4.49
G71U A90U	-1.78
C56U C97U	-0.00643
A41C C56U C94A	-3
A105G U112C	-0.683
C53A G69A C124A	-0.263
C56G G69C	-4.54
C97U G127A	-1.48
G10A C56A G110A	-0.729
C8A C53U U55A G77A C89A U129C	-3.11
A100U U133A	-0.657
G45U C70A C115A G128U	-3.65
G44A C72A U78C A119G	0.491
C64G G77A A111G U116C	-6.18
U9A G128C	-2.11
C40U C64U	-0.45
C22G G63C	-4.13
G39U U54A	-1.76
C99U C114U	-4.12
C11A C70A A90G	-3.13
U9G C20A U54C C76U G128C	-5.03

Variant	polymerase ribozyme fitness (log ratio)
G23C C34U U38A A46U C86G G110C	-8.09
A29U C40U C62A A83C	-3.08
C13A A46C G69C C124G	-1.36
G10U U112A C114U	-1.01
G36C G51A C101U	-3.92
A83G C97A	-5.59
G36U G60C A84C	-1.87
G113U G120A	-2.2
C8A U9G G39C G69A U78C U92G U106A	-7.09
C13A U109A G110C G128U	-3.64
A37G C62A G93U A121G	-3.43
C8G C49G A50U C79U U131C	-2.75
U59C U81G	-3.51
G48A C73A G127C	-1.15
G25A A66U C70G G110C	-6.93
U106A U133G	-0.54
A5C U14A A46U	-4.39
A27U C86A	-3.77
C53G U78C C82U G120A	0.0778
A46C C73G U87C	-1.35
